{
  "source": "a protein production outcome set (Wang et al. 2014)",
  "assay": "label from the status in PepcDB records",
  "data": [
    {"sequence": "MQKPAVTVMVKAARLAGNVLLRGINKLDALNVVQKGRMDYASEVDADAEKVIIKELKRGYPEYAVFGEEGGVQGGKSGRYTWVIDPLDGTSNYLRGFPHYCVSIALVENGEPTDAVIFDPLRNELFTASRGAGAVLNDRRIRIAERKDLEGAMVHTGFPPRERARASAQLKCVDALLVQAEDVRRTGSAALDLAYVACGRADAYFEAGVKAWDIAAGVLLVREAGGRVCDYKGATPPRMDNMGPETQQIVAGNIKISDALQKVIVNTGYAREFDAKF", "values": [
      {"measurement": "protein production", "value": "failed"}
    ]},
    {"sequence": "DLEPRERLHRILEQVLVFAGAMVAAAYTHSEDGDQLCLAESAGVPRSLYGLRDSYPLTGGTPAADVHRSGQPLWLTPEDLGRCADARRLPNGDFSLAVLPLGDGGCLAAVSERAGGFDADDRECLRLLAGSVA", "values": [
      {"measurement": "protein production", "value": "failed"}
    ]},
    {"sequence": "GEIIEGCRLPVLRRNQDNEDEWPLAEILSVKDISGRKLFYVHYIDFNRRLDEWVTHERLDLKKIQFPKKEAKTP", "values": [
      {"measurement": "protein production", "value": "not failed"}
    ]},
    {"sequence": "MTNLFLGFLVISFCLLGNLIHAADGSIHDYNNSGGFTKIANARYFVGGSEGIYGSEFLDVHHASSDTPLLKGNSFIRFDDITFVRTKESASKQNSTLAAAGLVEAILFEVKQRDRVGGSFFKSEDMCCTPKLADAGSCNLGEVMISADPNDPEWPKRIPTFFKRGEEEVKMSPEAVIIKKTGLYTVYFMTCDPELDGATIRGRTVWKNRGGYLQGEKAPLKKFYASMLLAYVVLGLVWFPQVAQYWKDGIQLHSHINFVIAFTMGELAFLYLDFVYLDSAGTSPMEVTVWAITLSSMRKALSRLLLLVISSGFGIVRPTLGGITLKMLLIGVLCFVISESLGLAMQFGNISENGMNYLMLSWAILETCFIQWIFRSLSKTLKKLKLNKRNITKLQLYKMFATVLVIMVVLSFAWIYVEVYLYSSLSQFWKVKWIVPTLWYILSYAMLVLICLFWPPSEKPMRYLYVADMEEETEEEDDLSTAETGMNATKAEYERSERKTLLEAFILLLGNIPGEK", "values": [
      {"measurement": "protein production", "value": "failed"}
    ]},
    {"sequence": "NQQTPTFYVHGFQGSAKSTNTLIAHAEKTAHAHKVLVATVSTSGQVTLTGKWRGRVRNPIIQVVFKNNLAQYDQQSAWLAKVITTVQQQHAFKHYNIVAHSAGCVASVNMLMTQQTTTFPKINKLVTIAGPFDGVVGEDDVANQNSFLTSGQPKYLHAAYELLAAKRNNFPKNVQLLNIVGTLNDGSHSDSLVTNVSARSIKYLLRGRDVDYTEKDFYGAHAQHSQLHENAKVALAVDRFLWHR", "values": [
      {"measurement": "protein production", "value": "failed"}
    ]},
    {"sequence": "MTNMRQVLKTDRLVLEPQSMARFDQWFAMERQRDEAGHRDLTEDQAWLRLCARQGMWDAYACGFYYLLDPVSGEMRGEAGFQFRRRGFGPGFDNHPEAAWAVASAHQGRGLAAEAMQALLAHHDRSSGRQRVVALIARSNLPSLRLAERLGFRGYSDVAFDGAAHLLLERAG", "values": [
      {"measurement": "protein production", "value": "not failed"}
    ]},
    {"sequence": "MGHHHHHHSHMGEIESYCNKELGPLPTKAPTLSKNVLDLFSLKGKVASVTGSSGGIGWAVAEAYAQAGADVAIWYNSHPADEKAEHLQKTYGVHSKAYKCNISDPKSVEETISQQEKDFGTIDVFVANAGVTWTQGPEIDVDNYDSWNKIISVDLNGVYYCSHNIGKIFKKNGKGSLIITSSISGKIVNIPQLQAPYNTAKAACTHLAKSLAIEWAPFARVNTISPGYIDTDITDFASKDMKAKWWQLTPLGREGLTQELVGGYLYLASNASTFTTGSDVVIDGGYTCP", "values": [
      {"measurement": "protein production", "value": "failed"}
    ]},
    {"sequence": "MILSQQKYNYLAKVSDSNGVISALAFDQRGALKCLMAQYQMKEPTVAQMEELKVLVSEELTPYASSILLDPEYGLPAAQARDREAGLLLAYEKTGYDANTTSRLPDCLVDWSIKRLKEAGADAVKFLLYYDVDGDPQVNVQKQAYIERIGSECQAEDIPFFLEILTYDETISNNSSVEFAKVKVHKVNDAMKVFSAERFGIDVLKVEVPVNMVYVEGFAEGEVVYSKEEAAQAFREQEASTDLPYIYLSAGVSAELFQETLVFAHKAGAKFNGVLCGRATWAGSVQVYMEEGKEAARQWLRTSGLQNINELNKVLKTTASPWTEKVSVG", "values": [
      {"measurement": "protein production", "value": "not failed"}
    ]},
    {"sequence": "MEFCPKCKSLMIYQGDKLVCRKCGYEKEADDSEELVIKVERNKEDVPVIEGENLKTLPTTKAICPACGHNEAFWWLRQLRAADESEVRFFRCTKCGKTWREYD", "values": [
      {"measurement": "protein production", "value": "failed"}
    ]},
    {"sequence": "NRLLSKYDPQKEAELRTWIEGLTGLSIGPDFQKGLKDGTILCTLMNKLQPGSVPKINRSMQNWHQLENLSNFIKAMVSYGMNPVDLFEANDLFESGNMTQVQVSLLALAGKAKTKGLQSGVDIGVKYSEKQER", "values": [
      {"measurement": "protein production", "value": "not failed"}
    ]}
  ]
}
